This data set concerns the target TDP-43 (TARDBP) (UniProt Q13148 Q13148:1-414). In words: pulldown; streptavidin bead pulldown and anti-TDP-43 Western; 20 mM HEPES pH 7.5, 0.3% CHAPS, 150 mM NaCl, on ice/4 C; binding blocked by 30 uM ALT-59, and complex displaced by ALT-59. The note with it: tags: N-terminal His-Sumo, expressed in E. coli Rosetta (DE3) from pSumo/TDP43; label: 3' biotin. The method, then: Additional experiments were performed to confirm the direct binding of ALT-59 to TDP-43. One microgram of purified His-Sumo-TDP43 was incubated with 1 μg TG₁₂-biotin ([…]-biotin (SEQ ID NO: 1)) in binding buffer containing 20 mM HEPES, pH 7.5, 0.3% CHAPS, 150 mM NaCl, (Sigma-Aldrich), and protease inhibitor cocktail (Roche) for 4 hours on ice in the presence of carrier (50% Cremophor EL, 50% absolute ethanol) or 30 μM ALT-59 dissolved in carrier. Streptavidin magnetic beads (20 μl settled beads, GE Healthcare Life Sciences) were added to pull down the DNA-protein complex by rotating at 4° C. for 2 hours. After being washed 5 times with binding buffer, samples were boiled in protein sample buffer. In another experiment, DNA-protein complex bound to Streptavidin magnetic beads were washed and split into three parts, two of which were incubated with either carrier or ALT-59 for 4 hours with rotation at 4° C. to elute TDP-43 from TG₁₂-biotin-streptavidin. The third part and elutes were mixed with protein sample buffer and boiled. Protein samples from the above experiments were loaded onto 4-20% Tris-glycine gel (Invitrogen) for fractionation. Western blotting was performed using anti-TDP-43 antibody (Proteintech Group).

Chain of TDP-43 (TARDBP) (Q13148 whole entry, one chain of several): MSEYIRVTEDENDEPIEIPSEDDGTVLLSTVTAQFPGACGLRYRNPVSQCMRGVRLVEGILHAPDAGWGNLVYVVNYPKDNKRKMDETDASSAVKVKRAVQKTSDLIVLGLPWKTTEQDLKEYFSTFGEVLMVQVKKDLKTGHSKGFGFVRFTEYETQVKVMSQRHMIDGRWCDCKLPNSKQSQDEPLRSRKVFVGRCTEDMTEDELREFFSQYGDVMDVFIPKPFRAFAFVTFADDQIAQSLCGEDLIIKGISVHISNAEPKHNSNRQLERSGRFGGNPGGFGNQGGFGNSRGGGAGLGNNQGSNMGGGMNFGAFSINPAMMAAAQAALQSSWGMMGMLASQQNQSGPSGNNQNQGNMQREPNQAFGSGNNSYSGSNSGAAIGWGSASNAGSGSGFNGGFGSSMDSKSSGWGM

Take TGTGTGTGTGTGTGTGTGTGTGTG (ssDNA) [TG12-biotin]: the binding result is reported as “binds”.
